Data taken from US20240052042A1 (Novartis, published 2024).

Columns and labels:
[1] = molecular target: W74R hNPR1 mutant in the presence of ANP (human) (UniProt P01160); test: ELISA, 1 µM IgG
[2] = molecular target: constitutively active human NPR1 mutant (W74R) (human) (UniProt P16066); test: ELISA, 1 µM IgG
[3] = molecular target: constitutively active human NPR1 mutant (W74R) (human) (UniProt P16066); test: ELISA, IgG titrated on coated antigen, fluorescence [Cont.]
[4] = molecular target: T1, human NPR1 on CHO-K1 cells in the presence of ANP (human, UniProt P01160 124-151); test: flow cytometry, hNPR1 CHO-K1 cells, IgG
T1 construct: also called hNPR1 CHO K1 + 100 nM ANP
T1 sequence: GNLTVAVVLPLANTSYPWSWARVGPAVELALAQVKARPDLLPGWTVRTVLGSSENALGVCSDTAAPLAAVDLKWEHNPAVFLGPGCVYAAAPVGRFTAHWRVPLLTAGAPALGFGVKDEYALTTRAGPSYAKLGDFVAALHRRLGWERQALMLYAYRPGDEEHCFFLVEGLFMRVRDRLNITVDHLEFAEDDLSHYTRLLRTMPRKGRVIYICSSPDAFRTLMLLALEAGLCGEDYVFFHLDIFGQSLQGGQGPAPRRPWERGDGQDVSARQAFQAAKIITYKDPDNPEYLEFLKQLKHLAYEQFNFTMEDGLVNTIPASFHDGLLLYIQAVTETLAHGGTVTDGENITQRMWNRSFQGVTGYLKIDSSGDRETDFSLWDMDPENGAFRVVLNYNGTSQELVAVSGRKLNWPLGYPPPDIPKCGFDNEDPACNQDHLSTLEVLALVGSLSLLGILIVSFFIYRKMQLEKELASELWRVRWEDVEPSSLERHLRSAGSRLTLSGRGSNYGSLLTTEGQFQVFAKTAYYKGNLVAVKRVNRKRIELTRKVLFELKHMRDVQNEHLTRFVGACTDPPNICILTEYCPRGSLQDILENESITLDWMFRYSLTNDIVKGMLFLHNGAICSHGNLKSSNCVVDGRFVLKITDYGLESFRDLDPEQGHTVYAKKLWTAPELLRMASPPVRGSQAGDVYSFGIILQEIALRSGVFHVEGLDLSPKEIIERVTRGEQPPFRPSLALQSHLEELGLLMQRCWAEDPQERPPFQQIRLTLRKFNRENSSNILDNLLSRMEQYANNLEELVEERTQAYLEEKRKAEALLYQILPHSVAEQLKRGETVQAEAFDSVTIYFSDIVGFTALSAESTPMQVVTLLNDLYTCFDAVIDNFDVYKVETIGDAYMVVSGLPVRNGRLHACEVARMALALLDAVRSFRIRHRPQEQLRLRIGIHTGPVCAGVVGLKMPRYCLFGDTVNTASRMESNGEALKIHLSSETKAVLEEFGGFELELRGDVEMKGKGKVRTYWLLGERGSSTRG
T1 sequence (peptide): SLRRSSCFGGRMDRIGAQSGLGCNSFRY

[5] = molecular target: T2, human NPR1 on CHO-K1 cells (human, UniProt P16066 33-1061); test: flow cytometry, hNPR1 CHO-K1 cells, IgG
T2 construct: also called hNPR1 CHO K1; human NPR1 expressing CHO-K1 cells
T2 sequence: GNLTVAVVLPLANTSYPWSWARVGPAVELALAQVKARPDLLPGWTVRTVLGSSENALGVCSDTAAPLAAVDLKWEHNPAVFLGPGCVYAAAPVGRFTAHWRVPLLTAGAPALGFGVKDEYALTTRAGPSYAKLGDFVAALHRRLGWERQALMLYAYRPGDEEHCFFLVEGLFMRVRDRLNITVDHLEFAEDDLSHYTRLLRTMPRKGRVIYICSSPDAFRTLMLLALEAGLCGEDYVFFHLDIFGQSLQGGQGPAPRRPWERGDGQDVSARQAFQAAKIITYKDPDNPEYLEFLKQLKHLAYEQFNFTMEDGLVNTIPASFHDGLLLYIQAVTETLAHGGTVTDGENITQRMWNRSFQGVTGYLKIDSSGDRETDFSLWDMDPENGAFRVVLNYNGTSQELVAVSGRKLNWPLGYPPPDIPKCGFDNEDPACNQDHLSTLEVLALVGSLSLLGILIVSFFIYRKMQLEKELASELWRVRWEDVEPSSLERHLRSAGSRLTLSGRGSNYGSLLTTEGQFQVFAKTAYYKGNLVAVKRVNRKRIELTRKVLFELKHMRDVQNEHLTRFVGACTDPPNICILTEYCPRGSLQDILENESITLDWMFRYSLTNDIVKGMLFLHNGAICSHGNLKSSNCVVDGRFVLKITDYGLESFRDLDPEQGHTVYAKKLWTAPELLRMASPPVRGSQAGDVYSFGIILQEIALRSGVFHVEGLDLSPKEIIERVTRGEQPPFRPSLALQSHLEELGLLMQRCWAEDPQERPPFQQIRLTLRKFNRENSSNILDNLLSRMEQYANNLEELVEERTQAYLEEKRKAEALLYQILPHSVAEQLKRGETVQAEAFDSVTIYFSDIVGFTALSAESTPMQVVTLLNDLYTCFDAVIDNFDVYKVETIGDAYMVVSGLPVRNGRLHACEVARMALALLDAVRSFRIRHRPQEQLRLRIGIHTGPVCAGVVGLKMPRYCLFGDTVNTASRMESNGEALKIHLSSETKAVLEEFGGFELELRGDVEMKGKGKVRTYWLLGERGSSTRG

rat NPR1 (rNPR1) = molecular target: T3, rat NPR1 (rNPR1) (rat, UniProt P18910 29-469, limits assumed); test: ELISA, 1 µM IgG; set-up: unit not given here
T3 construct: Soluble antigen
T3 sequence: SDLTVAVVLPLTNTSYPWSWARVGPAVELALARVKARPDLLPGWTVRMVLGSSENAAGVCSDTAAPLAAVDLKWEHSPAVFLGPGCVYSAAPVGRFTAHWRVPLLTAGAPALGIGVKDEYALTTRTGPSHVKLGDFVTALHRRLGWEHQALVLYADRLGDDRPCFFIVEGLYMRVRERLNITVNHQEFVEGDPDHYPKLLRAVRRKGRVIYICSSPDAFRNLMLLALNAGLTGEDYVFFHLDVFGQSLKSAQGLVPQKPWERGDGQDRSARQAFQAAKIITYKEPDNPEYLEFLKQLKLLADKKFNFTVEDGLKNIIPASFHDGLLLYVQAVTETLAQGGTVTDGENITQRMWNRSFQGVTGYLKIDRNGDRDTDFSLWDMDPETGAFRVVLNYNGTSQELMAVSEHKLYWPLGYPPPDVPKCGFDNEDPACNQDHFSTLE

[6] = molecular target: T4, human Natriuretic Peptide Receptor 1 (hNPR1) (human, UniProt P16066 33-473, limits assumed); test: ELISA, 1 µM IgG; set-up: unit not given here
T4 construct: pannings used NPR1-hFc; also called NPR1-hFc
T4 sequence: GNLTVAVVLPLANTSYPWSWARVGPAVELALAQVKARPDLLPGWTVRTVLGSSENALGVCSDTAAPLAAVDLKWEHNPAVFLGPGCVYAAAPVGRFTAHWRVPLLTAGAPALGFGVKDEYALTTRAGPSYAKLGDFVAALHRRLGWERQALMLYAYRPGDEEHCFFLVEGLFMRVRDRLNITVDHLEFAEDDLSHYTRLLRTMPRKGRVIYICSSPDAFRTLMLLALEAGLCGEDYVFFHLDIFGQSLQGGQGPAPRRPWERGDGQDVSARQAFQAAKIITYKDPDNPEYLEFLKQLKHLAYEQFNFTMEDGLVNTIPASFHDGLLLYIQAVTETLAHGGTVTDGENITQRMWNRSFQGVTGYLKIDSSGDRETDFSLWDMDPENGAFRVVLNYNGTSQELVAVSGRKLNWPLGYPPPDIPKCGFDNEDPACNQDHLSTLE

rNPR1-ANP complex = molecular target: T5, rNPR1-ANP complex (rat, UniProt P01160 124-151 (human entry), limits assumed); test: ELISA, 1 µM IgG; set-up: unit not given here
T5 construct: rNPR1 antigen in the presence of ANP; also called rNPR1 + 100 nM ANP
T5 sequence: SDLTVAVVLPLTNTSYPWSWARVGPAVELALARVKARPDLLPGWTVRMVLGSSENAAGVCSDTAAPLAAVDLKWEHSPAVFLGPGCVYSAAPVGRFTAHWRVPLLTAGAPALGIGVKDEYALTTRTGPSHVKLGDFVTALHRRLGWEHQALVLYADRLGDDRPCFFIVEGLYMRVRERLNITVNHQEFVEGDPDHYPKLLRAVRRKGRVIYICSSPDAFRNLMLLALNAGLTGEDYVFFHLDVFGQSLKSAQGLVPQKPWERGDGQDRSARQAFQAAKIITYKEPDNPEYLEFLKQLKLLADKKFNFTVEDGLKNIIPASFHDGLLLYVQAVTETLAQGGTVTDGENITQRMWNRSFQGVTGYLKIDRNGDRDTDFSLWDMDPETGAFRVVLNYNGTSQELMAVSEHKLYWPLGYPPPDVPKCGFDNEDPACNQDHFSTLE
T5 sequence (peptide): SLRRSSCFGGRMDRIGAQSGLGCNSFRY

[7] = molecular target: T6, human NPR3 in the presence of ANP (human, UniProt P17342 27-481; P01160 124-151, limits assumed); test: ELISA, 1 µM IgG; set-up: unit not given here
T6 construct: also called hNPR3 + 100 nM ANP
T6 sequence (looked up): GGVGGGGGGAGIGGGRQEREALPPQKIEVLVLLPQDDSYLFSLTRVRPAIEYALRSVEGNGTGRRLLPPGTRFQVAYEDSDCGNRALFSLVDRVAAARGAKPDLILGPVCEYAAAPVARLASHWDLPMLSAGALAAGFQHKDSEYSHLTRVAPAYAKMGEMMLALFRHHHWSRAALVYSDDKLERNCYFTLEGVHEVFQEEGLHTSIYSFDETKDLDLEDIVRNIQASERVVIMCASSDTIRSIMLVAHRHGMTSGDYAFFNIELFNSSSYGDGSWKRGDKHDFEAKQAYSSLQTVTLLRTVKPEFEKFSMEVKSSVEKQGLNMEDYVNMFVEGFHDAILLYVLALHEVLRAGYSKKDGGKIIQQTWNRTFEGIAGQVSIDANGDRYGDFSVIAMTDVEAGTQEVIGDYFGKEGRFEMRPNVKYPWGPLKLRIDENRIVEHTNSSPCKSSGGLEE
T6 sequence (peptide, looked up): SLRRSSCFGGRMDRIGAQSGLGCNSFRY

[8] = molecular target: T7, human NPR3 (counter target) (human, UniProt P17342 27-481, limits assumed); test: ELISA, 1 µM IgG; set-up: unit not given here
T7 construct: Pannings used hNPR3-hFc; also called hNPR3; hNPR3-hFc
T7 sequence (looked up): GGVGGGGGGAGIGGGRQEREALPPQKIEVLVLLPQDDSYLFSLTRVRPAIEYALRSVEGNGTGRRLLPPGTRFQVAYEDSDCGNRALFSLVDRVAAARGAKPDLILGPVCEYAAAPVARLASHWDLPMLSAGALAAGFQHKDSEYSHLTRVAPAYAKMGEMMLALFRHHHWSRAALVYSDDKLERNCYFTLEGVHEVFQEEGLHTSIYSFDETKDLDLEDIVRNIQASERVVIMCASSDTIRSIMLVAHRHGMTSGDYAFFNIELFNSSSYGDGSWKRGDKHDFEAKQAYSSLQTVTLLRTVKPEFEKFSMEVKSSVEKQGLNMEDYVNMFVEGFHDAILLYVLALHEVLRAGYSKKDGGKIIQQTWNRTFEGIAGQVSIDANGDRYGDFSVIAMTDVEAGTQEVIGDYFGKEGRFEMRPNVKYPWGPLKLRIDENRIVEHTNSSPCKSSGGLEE

hNPR1-ANP complex = molecular target: T8, hNPR1-ANP complex (human, UniProt P01160 124-151, limits assumed); test: ELISA, 1 µM IgG; set-up: unit not given here
T8 construct: hNPR1 antigen in the presence of ANP; also called hNPR1 + 100 nM ANP
T8 sequence: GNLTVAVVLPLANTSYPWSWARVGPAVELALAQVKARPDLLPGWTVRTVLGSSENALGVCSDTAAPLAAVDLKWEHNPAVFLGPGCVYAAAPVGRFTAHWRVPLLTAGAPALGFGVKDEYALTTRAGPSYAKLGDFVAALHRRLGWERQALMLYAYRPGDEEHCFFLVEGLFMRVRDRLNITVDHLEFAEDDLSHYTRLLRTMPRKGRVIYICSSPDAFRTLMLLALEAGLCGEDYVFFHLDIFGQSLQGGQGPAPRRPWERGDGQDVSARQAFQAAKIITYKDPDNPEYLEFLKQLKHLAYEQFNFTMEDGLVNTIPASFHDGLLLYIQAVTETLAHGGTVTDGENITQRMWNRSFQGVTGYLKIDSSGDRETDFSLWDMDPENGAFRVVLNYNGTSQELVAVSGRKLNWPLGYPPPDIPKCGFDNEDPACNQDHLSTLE
T8 sequence (peptide): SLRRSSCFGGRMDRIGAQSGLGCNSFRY

[9] = molecular target: T2, human NPR1 on CHO-K1 cells; test: cell-based or functional assay

B1: YY05 (IgG format) (antibody, V domains shown)
VH: EVQLVQSGAEVKKPGESLKISCKGSGYSFTSYWISWVRQMPGKGLEWMGIIYPGTSYTRYSPSFQGQVTISADKSISTAYLQWSSLKASDTAMYYCARGAVAGQLGFDHWGQGTLVTVSS
VL: QSVLTQPPSVSGAPGQRVTISCTGSSSNIGAGYDVHWYQQLPGTAPKLLIYGNSNRPSGVPDRFSGSKSGTSASLAITGLQAEDEADYYCQSYYTSSHGPVFGGGTKLTVLG
notes: also called YY05_LALA
ELISA binding at 1 µM IgG [1]: 23 | ELISA binding at 1 µM IgG [2]: 69 | EC50 (read off the curve) [3]: 1 nM | flow cytometry S/BG at 1 µM IgG [4]: 5 S/BG | flow cytometry S/BG at 1 µM IgG [5]: 15 S/BG | ELISA binding at 1 µM IgG (rat NPR1 (rNPR1)): 11 | ELISA binding at 1 µM IgG [6]: 81 | ELISA binding at 1 µM IgG (rNPR1-ANP complex): 16 | ELISA binding at 1 µM IgG [7]: 4 | ELISA binding at 1 µM IgG [8]: 7 | ELISA binding at 1 µM IgG (hNPR1-ANP complex): 32 | cGMP conc [nM] at 1 µM IgG, +0.075 nM ANP [9]: 15 nM | cGMP conc [nM] at 1 µM IgG, without ANP [9]: 13 nM
